Numbering of substitutions follows the chain as printed. In names and notes the source's numbering stands.
Experiments:
[1] = biological target: TraI, relaxase/helicase of plasmid R1 (plasmid R1 (R1-16), in E. coli)
ParR [2] = biological target: T1, ParR (Escherichia coli plasmid R1, UniProt P11906 1-117); assay: EMSA; ParR 20-320 nM; EMSA: 10 mM Tris-HCl pH 7.5, 50 mM NaCl, 0.005% NP-40, 1 mM DTT, 1 mM EDTA, 25 C, 20 min (DNA 20 nM in Methods, 4 nM in Fig 5 legend); fluorescence: 20 mM Tris-HCl pH 7.5, 100 mM NaCl, 1 mM EDTA, 25 C, 4 nM oriT17*, 0-100 nM TraI; conditions: protein: recombinant; tags: none stated; chain copies: 2; label: 3'-TAMRA
T1 sequence: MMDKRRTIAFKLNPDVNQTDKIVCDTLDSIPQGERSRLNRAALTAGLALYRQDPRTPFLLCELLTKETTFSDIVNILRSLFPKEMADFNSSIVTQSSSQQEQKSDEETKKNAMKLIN

ParR [3] = biological target: T1, ParR; assay: EMSA; shift from 5:1 protein/DNA molar ratio; EMSA: 10 mM Tris-HCl pH 7.5, 50 mM NaCl, 0.005% NP-40, 1 mM DTT, 1 mM EDTA, 25 C, 20 min (DNA 20 nM in Methods, 4 nM in Fig 5 legend); fluorescence: 20 mM Tris-HCl pH 7.5, 100 mM NaCl, 1 mM EDTA, 25 C, 4 nM oriT17*, 0-100 nM TraI; conditions: protein: recombinant; tags: none stated; chain copies: 2; label: 3'-TAMRA on strand 1; blunt
TraI = TraI (Escherichia coli plasmid R1, UniProt Q6TDU5 1-1756); assay: fluorescence intensity titration; unit not printed with value; nM from titration range; EMSA: 10 mM Tris-HCl pH 7.5, 50 mM NaCl, 0.005% NP-40, 1 mM DTT, 1 mM EDTA, 25 C, 20 min (DNA 20 nM in Methods, 4 nM in Fig 5 legend); fluorescence: 20 mM Tris-HCl pH 7.5, 100 mM NaCl, 1 mM EDTA, 25 C, 4 nM oriT17*, 0-100 nM TraI; conditions: protein: recombinant; label: 3'-TAMRA
[4] = biological target: T2, TraIΔN308 (helicase domain) (Escherichia coli plasmid R1, UniProt Q6TDU5 309-1756, del1-308); assay: as above; conditions: protein: recombinant; label: 3'-TAMRA
T2 sequence: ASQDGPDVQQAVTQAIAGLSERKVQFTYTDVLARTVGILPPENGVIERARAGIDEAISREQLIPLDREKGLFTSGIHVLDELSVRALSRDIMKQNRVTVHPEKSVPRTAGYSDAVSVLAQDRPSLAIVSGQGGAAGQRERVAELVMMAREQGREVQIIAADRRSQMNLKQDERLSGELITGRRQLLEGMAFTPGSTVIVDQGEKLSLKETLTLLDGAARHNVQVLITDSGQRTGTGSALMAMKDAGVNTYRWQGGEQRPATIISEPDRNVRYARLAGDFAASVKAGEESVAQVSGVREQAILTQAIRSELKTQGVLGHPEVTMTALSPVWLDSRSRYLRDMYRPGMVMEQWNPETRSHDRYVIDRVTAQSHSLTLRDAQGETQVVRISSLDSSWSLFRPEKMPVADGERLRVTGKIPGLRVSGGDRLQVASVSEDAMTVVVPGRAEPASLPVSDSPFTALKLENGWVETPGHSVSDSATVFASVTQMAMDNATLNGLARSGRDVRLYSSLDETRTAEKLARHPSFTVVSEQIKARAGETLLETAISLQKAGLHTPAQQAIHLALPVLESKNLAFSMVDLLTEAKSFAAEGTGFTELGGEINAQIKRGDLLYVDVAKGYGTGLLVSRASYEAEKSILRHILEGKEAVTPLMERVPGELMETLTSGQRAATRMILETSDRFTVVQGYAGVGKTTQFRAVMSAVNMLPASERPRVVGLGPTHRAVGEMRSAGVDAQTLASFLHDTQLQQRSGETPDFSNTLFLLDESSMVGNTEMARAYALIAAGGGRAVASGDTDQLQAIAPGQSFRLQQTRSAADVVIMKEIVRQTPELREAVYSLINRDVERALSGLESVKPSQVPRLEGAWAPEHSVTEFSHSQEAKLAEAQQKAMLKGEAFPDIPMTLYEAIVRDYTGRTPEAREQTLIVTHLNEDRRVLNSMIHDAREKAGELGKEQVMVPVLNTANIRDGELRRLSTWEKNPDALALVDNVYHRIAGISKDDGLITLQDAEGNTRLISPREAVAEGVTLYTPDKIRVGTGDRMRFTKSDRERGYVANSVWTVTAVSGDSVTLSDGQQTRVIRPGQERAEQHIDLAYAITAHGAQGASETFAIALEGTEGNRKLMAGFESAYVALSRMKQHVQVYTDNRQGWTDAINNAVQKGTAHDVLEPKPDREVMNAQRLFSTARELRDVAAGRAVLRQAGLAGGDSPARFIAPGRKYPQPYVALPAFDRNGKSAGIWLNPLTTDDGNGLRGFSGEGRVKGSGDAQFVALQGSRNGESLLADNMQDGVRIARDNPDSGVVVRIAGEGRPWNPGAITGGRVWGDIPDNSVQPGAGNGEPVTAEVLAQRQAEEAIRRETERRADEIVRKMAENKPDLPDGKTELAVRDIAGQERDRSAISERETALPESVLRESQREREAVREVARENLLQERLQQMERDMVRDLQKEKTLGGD

[5] = biological target: T3, TraIN308 (relaxase domain) (Escherichia coli plasmid R1, UniProt Q6TDU5 1-308); assay: as above; conditions: protein: recombinant; label: 3'-TAMRA
T3 sequence: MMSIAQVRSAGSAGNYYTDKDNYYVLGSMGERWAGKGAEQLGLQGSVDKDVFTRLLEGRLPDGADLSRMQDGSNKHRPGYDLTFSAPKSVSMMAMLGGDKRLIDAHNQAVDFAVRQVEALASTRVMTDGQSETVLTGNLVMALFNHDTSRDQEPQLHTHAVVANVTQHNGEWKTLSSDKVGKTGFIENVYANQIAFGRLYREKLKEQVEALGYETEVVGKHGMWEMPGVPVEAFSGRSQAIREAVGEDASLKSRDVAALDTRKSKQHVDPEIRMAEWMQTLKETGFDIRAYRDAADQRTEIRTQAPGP

[6] = biological target: TraD, type IV coupling protein (T4CP) of plasmid R1 (plasmid R1 (R1-16), in E. coli)

“ParR with C-terminal FLAG epitope (pMS-CFLAGparR) (natural protein)” showed a TraI (25 nM) relaxase activity on supercoiled oriT plasmid pDE100 (4 nM), percent open circular DNA, with increasing purified untagged ParR; maximum at 10 nM ParR [1] of 4 fold.

B1: ParM with C-terminal FLAG epitope (pMS-CFLAGparM) (natural protein)
chain: MLVFIDDGSTNIKLQWQESDGTIKQHISPNSFKREWAVSFGDKKVFNYTLNGEQYSFDPISPDAVVTTNIAWQYSDVNVVAVHHALLTSGLPVSEVDIVCTLPLTEYYDRNNQPNTENIERKKANFRKKITLNGGDTFTIKDVKVMPESIPAGYEVLQELDELDSLLIIDLGGTTLDISQVMGKLSGISKIYGDSSLGVSLVTSAVKDALSLARTKGSSYLADDIIIHRKDNNYLKQRINDENKISIVTEAMNEALRKLEQRVLNTLNEFSGYTHVMVIGGGAELICDAVKKHTQIRDERFFKTNNSQYDLVNGMYLIGN
Molecule B1 has a TraI (25 nM) relaxase activity on supercoiled oriT plasmid pDE100 (4 nM), percent open circular DNA, with increasing purified untagged ParM; maximum at 20-30 nM ParM [1] of 3 fold.

B2: ssparC (ssDNA)
DNA: AAACAAAACCCAAAAACAACCC
B2: no binding (ParR [2]).

B3: ssoriT (ssDNA)
DNA: ACCAAAAGCACCACACCCCACGCAAAAACAAG
B3: no binding (ParR [2]).

B4: dsparC (iterons 1 and 2) (dsDNA)
DNA 1: AAACAAAACCCAAAAACAACCC
DNA 2: GGGTTGTTTTTGGGTTTTGTTT
B4: binds (ParR [3]).

B5: oriT17* (ssDNA)
DNA: TTTGCGTGGGGTGTGGT
In the case of B5, the Kd (TraI) is reported as 4.05 ± 0.32 nM, the Kd [4] is reported as 82.6 ± 13.1 nM and the Kd [5] is reported as 0.87 ± 0.19 nM.

B6: ssrnd (ssDNA)
DNA: CGAACGAGCAGTTGTTTCAGCG
B6: no binding (ParR [2]).

B7: CreParMK123A (Cre fused to ParM residues 2-320 with K123A) (protein)
chain: LVFIDDGSTNIKLQWQESDGTIKQHISPNSFKREWAVSFGDKKVFNYTLNGEQYSFDPISPDAVVTTNIAWQYSDVNVVAVHHALLTSGLPVSEVDIVCTLPLTEYYDRNNQPNTENIERKAANFRKKITLNGGDTFTIKDVKVMPESIPAGYEVLQELDELDSLLIIDLGGTTLDISQVMGKLSGISKIYGDSSLGVSLVTSAVKDALSLARTKGSSYLADDIIIHRKDNNYLKQRINDENKISIVTEAMNEALRKLEQRVLNTLNEFSGYTHVMVIGGGAELICDAVKKHTQIRDERFFKTNNSQYDLVNGMYLIGN
With B7 the translocation of CreParMK123A to recipient cells by the R1-16 T4SS (CRAfT), percent of wild type Cre-ParM (% of wild type levels) [6] was 24.5.

B8: CreParMS39A (Cre fused to ParM residues 2-320 with S39A) (protein)
chain: B7 chain with S38A, A122K
For B8, the translocation of CreParMS39A to recipient cells by the R1-16 T4SS (CRAfT), percent of wild type Cre-ParM (% of wild type levels) [6] was 59.

Source: paper PMC4949242, “Conjugative DNA Transfer Is Enhanced by Plasmid R1 Partitioning Proteins”
